{"source": "patent US20100056764A1", "key": {"[1]": {"target": "human NKG2D (hNKG2D) on the cell surface (human) (UniProt P26718)", "sequence (P26718 whole entry T72A)": "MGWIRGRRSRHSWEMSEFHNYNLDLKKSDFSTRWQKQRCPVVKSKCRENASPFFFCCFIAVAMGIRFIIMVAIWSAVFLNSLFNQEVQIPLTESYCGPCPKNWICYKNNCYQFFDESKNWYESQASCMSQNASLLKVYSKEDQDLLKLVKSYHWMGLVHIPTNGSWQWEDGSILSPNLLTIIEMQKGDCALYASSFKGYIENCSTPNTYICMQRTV", "assay": "flow cytometry blocking assay on NKG2D/DAP10-expressing BaF/3 cells: pre-incubation with the antibody, then 1 µg MICA-Fc (hFc-MICA, m12, for ON72 according to paragraph 390); y axis % remaining MICA-Fc binding"}, "[2]": {"target": "human NKG2D (hNKG2D) on the cell surface (human) (UniProt P26718)", "assay": "flow cytometry, NKG2D/DAP10 BaF/3 cells pre-incubated with antibody, then 1 µg hFc-MICA (competitor)"}, "[3]": {"target": "human NKG2D (hNKG2D) on the cell surface (human) (UniProt P26718)", "assay": "flow cytometry, dose-response on NKG2D- and DAP10-expressing BaF/3 cells"}, "[4]": {"target": "recombinant NKG2D-Fc protein (R&D Systems), immobilized on a Biacore CM5 chip (human) (UniProt P26718)", "sequence (P26718 78-216)": "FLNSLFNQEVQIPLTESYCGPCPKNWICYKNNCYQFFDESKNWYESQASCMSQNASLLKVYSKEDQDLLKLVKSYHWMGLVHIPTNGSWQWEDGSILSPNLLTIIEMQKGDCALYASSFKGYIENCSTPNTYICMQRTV", "assay": "SPR (Biacore), NKG2D-Fc immobilized on CM5 chip, antibody in solution"}, "[5]": {"target": "human NKG2D (hNKG2D) on the cell surface (human) (UniProt P26718)", "assay": "flow cytometry, dose-response on NKG2D- and DAP10-expressing BaF/3 cells, y axis % of max binding"}, "[6]": {"target": "human NKG2D (hNKG2D) on the cell surface (human) (UniProt P26718)", "assay": "flow cytometry, NKG2D/DAP10 BaF/3 cells pre-incubated with antibody, then 1 µg hFc-MICA (competitor)", "remark": "listed apart in the source"}, "[7]": {"target": "human NKG2D (hNKG2D) on the cell surface (human) (UniProt P26718)", "assay": "cell-based or functional assay"}, "[8]": {"target": "human NKG2D (hNKG2D) on the cell surface (human) (UniProt P26718)", "assay": "flow cytometry, NKG2D-expressing cells pre-incubated with ON72 (0.3 µg), then 16F16 IgG4 (0.3 µg, competitor); legend of FIG. 9A"}, "[9]": {"target": "human NKG2D (hNKG2D) on the cell surface (human) (UniProt P26718)", "assay": "flow cytometry, NKG2D-expressing cells pre-incubated with ON72, then recombinant 16F16 (competitor)"}}, "note": "Where “and” joins values, the source holds several entries; their conditions need not be identical. Equal values may be shown once. Read-outs that look alike come from different tables or passages of the source.", "data": [{"substance": "ON72, commercially available murine anti-hNKG2D monoclonal antibody (Beckman Coulter Inc.)", "values": [{"measurement": "IC50 (read off the curve)", "setting": "[1]", "value": 0.02, "unit": "nM"}, {"measurement": "IC50", "setting": "[2]", "value": 0.019, "unit": "µg/mL"}, {"measurement": "full blockade of 1 µg MICA-Fc (antibody concentration)", "setting": "[2]", "value": 0.54, "unit": "µg/mL"}, {"measurement": "EC50", "setting": "[3]", "value": "0.062 µg/mL and 0.048 nM"}, {"measurement": "Kd", "setting": "[4]", "value": 0.17, "unit": "nM"}, {"measurement": "koff", "setting": "[4]", "value": 0.00011, "unit": "s⁻¹"}, {"measurement": "kon", "setting": "[4]", "value": 960000, "unit": "M⁻¹ s⁻¹"}, {"measurement": "EC50 (read off the curve)", "setting": "[5]", "value": 0.06, "unit": "nM"}, {"measurement": "IC50", "setting": "[6]", "value": 0.02, "unit": "nM"}, {"measurement": "full blockade of 1 µg MICA-Fc (antibody concentration)", "setting": "[6]", "value": 0.24, "unit": "nM"}, {"measurement": "% proliferation of PBMC, stimulation CD3 0.1 + CD28 + ON72 (immobilized antibodies)", "setting": "[7]", "value": 22.9, "unit": "%"}, {"measurement": "% proliferation of PBMC, stimulation CD3 0.1 + ON72 (immobilized antibodies)", "setting": "[7]", "value": 7.12, "unit": "%"}, {"measurement": "% proliferation of PBMC, stimulation CD3 0.3 + CD28 + ON72 (immobilized antibodies)", "setting": "[7]", "value": 40.1, "unit": "%"}, {"measurement": "% proliferation of PBMC, stimulation CD3 0.3 + ON72 (immobilized antibodies)", "setting": "[7]", "value": 28.4, "unit": "%"}, {"measurement": "EC50 (µg/ml), inhibition of NK cell killing of ULPB3-expressing target cells (51Cr release)", "setting": "[7]", "value": 0.065, "unit": "µg/mL"}, {"measurement": "down-modulation of cell-surface NKG2D, NKG2D/DAP10 BaF/3 cells, overnight incubation", "setting": "[7]", "value": 55, "unit": "%"}, {"measurement": "internalization of NKG2D at 1 h, NKG2D+ lymphocytes in whole blood, 0.1 µg/ml", "setting": "[7]", "value": "50 to 75", "unit": "%"}, {"measurement": "internalization of NKG2D at 24 h, NKG2D+ lymphocytes in whole blood, 0.1 µg/ml", "setting": "[7]", "value": 100, "unit": "%"}, {"measurement": "% of 16F16 binding prevented", "setting": "[8]", "value": 85, "unit": "%"}, {"measurement": "% of 16F16 binding blocked", "setting": "[9]", "value": 82, "unit": "%"}]}]}
